First the molecules themselves.
B1: 85L117H (antibody, V domains shown)
VH: QVQLVQSGAELKRPGSSVKVSCRASGDTFKNYAITWVRQAPGQGLEWVGGIDPLVGVPNYTHRFQGRVTITADEPTSTTYMEFRDLTSDDTAVYYCARGVRDQHWSYFDSWGQGTLVTVSS
VL: QSVLTQPPSASGTPGQTVNISCSGATSNIGGGSVNWYQQLPGAAPRLLIHSDNERASGVPDRFSGSKSGTSASLAISGLQSEDEADYFCASWDDSLDGHVVFGGGTKVTVL
B2: Murine 3F12E7 (antibody, V domains shown)
VH: GELQESGPELVKPGASVKISCKASGYSFTGYYMNWVKHSPEKSLEWIGEINPSTGGTSYNQKFKAKATLTVDKSSTTAYMQLKGLTSEDSAVYYCASGGYYEGFDYWGQGTTVTVSS
VL: DIELTQSPASLSASVGETVTGNIYSYLAWYQQKQGKSPQLLVYDAKTLADGVPSRFTGSGSGTQFSLKINSLQPEDFGSYYCQHFWNTPRTFGGGTKLEIK
B3: 62K98H (antibody, V domains shown)
VH: QITLKESGPTLVKPTQTLTLTCTFSGFSLSTSGVGVGWIRQPPGEALEWLAVIHWNEANYYSPYLRSRLTITKDTSKNQMVLTVTNMDPVDTATYYCARGANSDSSGRLDAFDIWGQGTMVTVSS
VL: DVVMTQSPLSLPVTLGQPASISCRSSQSLIYSDGNTRLYWFHQRPGQSPRRLIYGVSNRDSGVPDRFSGSGSGTDFTLKISRVEAEDVGVYYCMQSTHWPHTFGQGTKLEIK

The results in this text go back to patent US20260297170 (published 2026).

For the test, the target named is rFGF2 (human, UniProt P09038). The experiment in a line: SPR.
rFGF2, sequence (P09038 143-288): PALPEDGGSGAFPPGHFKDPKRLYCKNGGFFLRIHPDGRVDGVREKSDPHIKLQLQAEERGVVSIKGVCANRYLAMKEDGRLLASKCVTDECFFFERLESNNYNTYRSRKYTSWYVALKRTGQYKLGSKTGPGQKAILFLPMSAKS
For orientation: Kd means the constant that tells how readily two partners part at equilibrium. B1 came in with a Kd of 17 nM.

B2 yielded a Kd of 0.413 nM. Compared with the last molecule, the Kd is about 41-fold lower.

As to B3, the Kd was 9.1 nM.
